Laboratory results: publication PMC8761896

How the values were obtained:
BG505-SOSIP = BG505-SOSIP (UniProt Q2N0S6)
VRC01gl Fab with G107aL = assay: dynamic light scattering
[1] = biological target: VRC01gl Fab with comL ('VQ' insertion at 103aL and 103bL, L104VL, E105DL); assay: dynamic light scattering

| Substance | Kd (BG505-SOSIP) [nM] | koff (BG505-SOSIP) [s⁻¹] | kon (BG505-SOSIP) [M⁻¹ s⁻¹] | stoichiometry N (VRC01gl Fab with G107aL) | stoichiometry N [1] |
| --- | --- | --- | --- | --- | --- |
| N6 Fab L:H38Q | 0.0781 | 6.04e-06 | 76800 | – | – |
| 3BNC131 Fab H:Q39L | 21.2 | 0.00095 | 44800 | – | – |
| VRC01gl Fab with G107aL | – | – | – | 2 | – |
| VRC01gl Fab with comL ('VQ' insertion at 103aL and 103bL, L104VL, E105DL) | – | – | – | – | 4 |
